Experimental data published in patent publication US20210246166A1 (Bayer, published 2021).
One block for each binder: values may come before it. Numbered stars: 1 amine (or outer) side, 2 acyl side, 3 side chain; on linkers, the order of the positions; unused ones are H or OH. Bridge positions count the residues as written; N and C are the ends. Square brackets hold non-standard residues; d marks the D form. Primed or numbered codes have the meaning given here. Ends that are not written are not given here. TTDS(3) = 1,13-Diamino-4,7,10-trioxatridecan-succinamic acid; Pro(3S,4R-methano) = O=C(O)[C@H]1NC[C@@H]2C[C@@H]21; cPrCO(1-aminomethyl) = O=C(C1(CN[*:1])CC1)[*:2]; Oic = O=C(O)[C@@H]1C[C@@H]2CCCC[C@@H]2N1; PEG6 = NCCOCCOCCOCCOCCOCCOCCC(=O)O; tBuAla = CC(C)(C)C[C@H](N)C(=O)O; Pen = CC(C)(S)[C@H](N)C(=O)O; NMeC = CN[C@@H](CS)C(=O)O; PEG3 = NCCOCCOCCOCCC(=O)O; Nle = CCCC[C@H](N)C(=O)O; Orn = NCCC[C@H](N)C(=O)O; Aze = O=C(O)[C@@H]1CCN1; Nva = CCC[C@H](N)C(=O)O; Sar = CNCC(=O)O

Key:
[1] = biological target: T1, recombinant human MASP1 active protease (amino acids 297-699, C-terminal His Tag) (human, UniProt P48740 297-699); experiment: cell-based or functional assay
T1 sequence: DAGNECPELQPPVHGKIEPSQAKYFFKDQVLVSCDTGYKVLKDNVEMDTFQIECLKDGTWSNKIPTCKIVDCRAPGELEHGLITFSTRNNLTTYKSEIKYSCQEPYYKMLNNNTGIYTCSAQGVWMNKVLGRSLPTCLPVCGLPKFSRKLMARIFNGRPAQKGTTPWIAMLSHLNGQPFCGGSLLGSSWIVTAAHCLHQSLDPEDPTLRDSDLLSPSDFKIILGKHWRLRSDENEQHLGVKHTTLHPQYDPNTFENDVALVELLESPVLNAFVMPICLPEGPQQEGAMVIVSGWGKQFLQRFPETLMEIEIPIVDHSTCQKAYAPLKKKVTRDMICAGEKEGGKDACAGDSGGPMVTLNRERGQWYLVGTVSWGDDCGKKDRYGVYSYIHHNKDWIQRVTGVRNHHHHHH

[2] = biological target: recombinant human MASP2 active protease (amino acids 297-686, C-terminal His Tag) (human, UniProt O00187 297-686); experiment: cell-based or functional assay
recombinant human MASP2 active protease (amino acids 297-686, C-terminal His Tag), sequence (O00187 other isoform, or with tags, fused parts or gaps limits assumed): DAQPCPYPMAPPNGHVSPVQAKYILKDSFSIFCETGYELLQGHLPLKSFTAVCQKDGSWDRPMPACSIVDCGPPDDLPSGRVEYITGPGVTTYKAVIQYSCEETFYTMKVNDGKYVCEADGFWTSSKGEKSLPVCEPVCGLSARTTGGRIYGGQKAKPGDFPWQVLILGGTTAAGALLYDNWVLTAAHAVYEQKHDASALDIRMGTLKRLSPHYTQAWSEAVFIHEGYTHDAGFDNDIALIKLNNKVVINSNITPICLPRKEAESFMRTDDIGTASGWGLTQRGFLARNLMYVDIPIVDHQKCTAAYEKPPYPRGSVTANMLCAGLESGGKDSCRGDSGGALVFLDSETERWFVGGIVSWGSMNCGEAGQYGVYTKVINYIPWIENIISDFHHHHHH

human MASP1 IC50 [1]: 1.1 nM | human MASP2 IC50 [2]: 50 nM
B3: (Nva)-IC+SRS-((tBu)A)-PPI-(((N-Me)C))+I-NH2 (peptide)
peptide: [Nva]ICSRS[tBuAla]PPI[NMeC]I-NH2
modifications: disulfide 3-11; N-terminus assumed
SMILES: CCC[C@H](N)C(=O)N[C@H](C(=O)N[C@H]1CSSC[C@@H](C(=O)N[C@H](C(N)=O)[C@@H](C)CC)N(C)C(=O)[C@H]([C@@H](C)CC)NC(=O)[C@@H]2CCCN2C(=O)[C@@H]2CCCN2C(=O)[C@H](CC(C)(C)C)NC(=O)[C@H](CO)NC(=O)[C@H](CCCNC(=N)N)NC(=O)[C@H](CO)NC1=O)[C@@H](C)CC

human MASP1 IC50 [1]: 2.6 nM | human MASP2 IC50 [2]: 130 nM
B5: (Orn)-IC+SRS-((tBu)A)-PPI-((N-Me)C)+I-NH2 (peptide)
peptide: [Orn]ICSRS[tBuAla]PPI[NMeC]I-NH2
modifications: disulfide 3-11; N-terminus assumed
SMILES: CC[C@H](C)[C@H](NC(=O)[C@@H]1CSSC[C@H](NC(=O)[C@@H](NC(=O)[C@@H](N)CCCN)[C@@H](C)CC)C(=O)N[C@@H](CO)C(=O)N[C@@H](CCCNC(=N)N)C(=O)N[C@@H](CO)C(=O)N[C@@H](CC(C)(C)C)C(=O)N2CCC[C@H]2C(=O)N2CCC[C@H]2C(=O)N[C@@H]([C@@H](C)CC)C(=O)N1C)C(N)=O

human MASP1 IC50 [1]: 2.45 nM | human MASP2 IC50 [2]: 185 nM
B6: AIC+SRS-((tBu)A)-PPI-((N-Me)C)+IPD-OH (peptide)
peptide: AICSRS[tBuAla]PPI[NMeC]IPD-OH
modifications: disulfide 3-11; N-terminus assumed
SMILES: CC[C@H](C)[C@H](NC(=O)[C@H](C)N)C(=O)N[C@H]1CSSC[C@@H](C(=O)N[C@H](C(=O)N2CCC[C@H]2C(=O)N[C@@H](CC(=O)O)C(=O)O)[C@@H](C)CC)N(C)C(=O)[C@H]([C@@H](C)CC)NC(=O)[C@@H]2CCCN2C(=O)[C@@H]2CCCN2C(=O)[C@H](CC(C)(C)C)NC(=O)[C@H](CO)NC(=O)[C@H](CCCNC(=N)N)NC(=O)[C@H](CO)NC1=O

human MASP1 IC50 [1]: 2.6 nM | human MASP2 IC50 [2]: 38 nM
B8: (Nle)-IC+SRS-((tBu)A)-PPI-(Pen)+IPD-NH2 (peptide)
peptide: [Nle]ICSRS[tBuAla]PPI[Pen]IPD-NH2
modifications: disulfide 3-11; N-terminus assumed
SMILES: CCCC[C@H](N)C(=O)N[C@H](C(=O)N[C@H]1CSSC(C)(C)[C@@H](C(=O)N[C@H](C(=O)N2CCC[C@H]2C(=O)N[C@@H](CC(=O)O)C(N)=O)[C@@H](C)CC)NC(=O)[C@H]([C@@H](C)CC)NC(=O)[C@@H]2CCCN2C(=O)[C@@H]2CCCN2C(=O)[C@H](CC(C)(C)C)NC(=O)[C@H](CO)NC(=O)[C@H](CCCNC(=N)N)NC(=O)[C@H](CO)NC1=O)[C@@H](C)CC

human MASP1 IC50 [1]: 2.5 nM | human MASP2 IC50 [2]: 190 nM
B10: AIC+SRS-((tBu)A)-P-(Oic)-IC+IPD-NH2 (HCl salt) (peptide)
peptide: AICSRS[tBuAla]P[Oic]ICIPD-NH2
modifications: disulfide 3-11; also: HCl salt

human MASP1 IC50 [1]: 2.4 nM | human MASP2 IC50 [2]: 64 nM
B12: WIC+SRS-((tBu)A)-PPI-(Pen)+IPD-NH2 (peptide)
peptide: WICSRS[tBuAla]PPI[Pen]IPD-NH2
modifications: disulfide 3-11; N-terminus assumed
SMILES: CC[C@H](C)[C@H](NC(=O)[C@@H](N)Cc1c[nH]c2ccccc12)C(=O)N[C@H]1CSSC(C)(C)[C@@H](C(=O)N[C@H](C(=O)N2CCC[C@H]2C(=O)N[C@@H](CC(=O)O)C(N)=O)[C@@H](C)CC)NC(=O)[C@H]([C@@H](C)CC)NC(=O)[C@@H]2CCCN2C(=O)[C@@H]2CCCN2C(=O)[C@H](CC(C)(C)C)NC(=O)[C@H](CO)NC(=O)[C@H](CCCNC(=N)N)NC(=O)[C@H](CO)NC1=O

More lines, now with the values behind:

B1: (ACMP)-IC+SRS-((tBu)A)-PPI-((N-Me)C)+I-NH2 (peptide)
peptide: [cPrCO(1-aminomethyl)]ICSRS[tBuAla]PPI[NMeC]I-NH2
modifications: disulfide 3-11; N-terminus assumed
SMILES: CC[C@H](C)[C@H](NC(=O)[C@@H]1CSSC[C@H](NC(=O)[C@@H](NC(=O)C2(CN)CC2)[C@@H](C)CC)C(=O)N[C@@H](CO)C(=O)N[C@@H](CCCNC(=N)N)C(=O)N[C@@H](CO)C(=O)N[C@@H](CC(C)(C)C)C(=O)N2CCC[C@H]2C(=O)N2CCC[C@H]2C(=O)N[C@@H]([C@@H](C)CC)C(=O)N1C)C(N)=O
human MASP1 IC50 [1]: 2.6 nM | human MASP2 IC50 [2]: 360 nM

B2: ((N-Me)G)-IC+SRSLP-(Oic)-I-(Pen)+IP-(PEG2(13 atoms))-NH2 (peptide)
peptide: [Sar]ICSRSLP[Oic]I[Pen]IP[PEG3]-NH2
modifications: disulfide 3-11; N-terminus assumed
SMILES: CC[C@H](C)[C@H](NC(=O)CNC)C(=O)N[C@H]1CSSC(C)(C)[C@@H](C(=O)N[C@H](C(=O)N2CCC[C@H]2C(=O)NCCOCCOCCOCCC(N)=O)[C@@H](C)CC)NC(=O)[C@H]([C@@H](C)CC)NC(=O)[C@@H]2C[C@@H]3CCCC[C@@H]3N2C(=O)[C@@H]2CCCN2C(=O)[C@H](CC(C)C)NC(=O)[C@H](CO)NC(=O)[C@H](CCCNC(=N)N)NC(=O)[C@H](CO)NC1=O
human MASP1 IC50 [1]: 1.1 nM | human MASP2 IC50 [2]: 23 nM

B4: ((N-Me)G)-IC+SRS-((tBu)A)-PPI-(Pen)+IP-(PEG5(22 atoms))-NH2 (peptide)
peptide: [Sar]ICSRS[tBuAla]PPI[Pen]IP[PEG6]-NH2
modifications: disulfide 3-11; N-terminus assumed
SMILES: CC[C@H](C)[C@H](NC(=O)CNC)C(=O)N[C@H]1CSSC(C)(C)[C@@H](C(=O)N[C@H](C(=O)N2CCC[C@H]2C(=O)NCCOCCOCCOCCOCCOCCOCCC(N)=O)[C@@H](C)CC)NC(=O)[C@H]([C@@H](C)CC)NC(=O)[C@@H]2CCCN2C(=O)[C@@H]2CCCN2C(=O)[C@H](CC(C)(C)C)NC(=O)[C@H](CO)NC(=O)[C@H](CCCNC(=N)N)NC(=O)[C@H](CO)NC1=O
human MASP1 IC50 [1]: 2.5 nM | human MASP2 IC50 [2]: 48 nM

B7: ((N-Me)G)-IC+SRSLP-(Oic)-I-(Pen)+IP-(PEG5-CH2CO2H (18 atoms))-NH2 (peptide)
peptide: [Sar]ICSRSLP[Oic]I[Pen]IP[PEG5‑CH2CO2H (18 atoms)]-NH2
modifications: disulfide 3-11
human MASP1 IC50 [1]: 2.4 nM | human MASP2 IC50 [2]: 110 nM

B9: ((N-Me)G)-IC+SRSL-((1S,2S,5R)-3-azabicyclo[3.1.0]hexane-2-carboxylic acid)-PI-(Pen)+IPE-NH2 (peptide)
peptide: [Sar]ICSRSL[Pro(3S,4R-methano)]PI[Pen]IPE-NH2
modifications: disulfide 3-11; N-terminus assumed
SMILES: CC[C@H](C)[C@H](NC(=O)CNC)C(=O)N[C@H]1CSSC(C)(C)[C@@H](C(=O)N[C@H](C(=O)N2CCC[C@H]2C(=O)N[C@@H](CCC(=O)O)C(N)=O)[C@@H](C)CC)NC(=O)[C@H]([C@@H](C)CC)NC(=O)[C@@H]2CCCN2C(=O)[C@@H]2[C@H]3C[C@H]3CN2C(=O)[C@H](CC(C)C)NC(=O)[C@H](CO)NC(=O)[C@H](CCCNC(=N)N)NC(=O)[C@H](CO)NC1=O
human MASP1 IC50 [1]: 2.5 nM | human MASP2 IC50 [2]: 70 nM

B11: ((N-Me)G)-IC+SRS-((tBu)A)-PPI-(Pen)+IP-(TTDS)-NH2 (peptide)
peptide: [Sar]ICSRS[tBuAla]PPI[Pen]IP-{TTDS(3)-NH2}
modifications: disulfide 3-11
human MASP1 IC50 [1]: 2.4 nM | human MASP2 IC50 [2]: 58 nM

B13: (Azetidine-2-carboxylic acid)-IC+SRS-((tBu)A)-PPI-(Pen)+IPD-NH2 (peptide)
peptide: [Aze]ICSRS[tBuAla]PPI[Pen]IPD-NH2
modifications: disulfide 3-11
human MASP1 IC50 [1]: 2.4 nM | human MASP2 IC50 [2]: 68 nM
